Results from PMC6846668 (Nucleic Acids Research, 2019).

Tests used:
PolIV = target: T1, PolIV (Escherichia coli, UniProt Q47155); experiment: primer extension, gel; type: biochemical; conditions: 6FAM primer/template, 2.5 mM MnCl2, pH 8.0, 37°C
T1 sequence (Q47155 1-351): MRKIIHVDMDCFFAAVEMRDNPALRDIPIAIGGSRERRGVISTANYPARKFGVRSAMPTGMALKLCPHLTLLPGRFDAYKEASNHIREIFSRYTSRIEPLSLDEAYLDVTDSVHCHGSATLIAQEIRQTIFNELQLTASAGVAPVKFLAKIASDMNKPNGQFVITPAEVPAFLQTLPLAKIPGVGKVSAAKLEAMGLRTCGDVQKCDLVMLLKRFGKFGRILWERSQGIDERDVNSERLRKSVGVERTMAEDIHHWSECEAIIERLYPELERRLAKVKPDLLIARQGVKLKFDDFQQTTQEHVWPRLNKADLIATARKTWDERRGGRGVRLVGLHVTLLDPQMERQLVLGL

[1] = substrate: Nc1ccn([C@@H]2O[C@H](COP(=O)(O)OP(=O)(O)OP(=O)(O)O)[C@@H](O)[C@H]2O)c(=O)n1; experiment: primer extension, Lineweaver-Burk; type: biochemical, Mycolicibacterium smegmatis; conditions: 6FAM 15mer primer/50mer template, 2.5 mM MnCl2, pH 8.0, 37°C

Molecule | primer extension, gel (PolIV) | Km [1] [µM] | kcat [1] [s⁻¹] | kcat/Km [1] [M⁻¹ s⁻¹]
Nc1ccn([C@H]2C[C@H](O)[C@@H](COP(=O)(O)OP(=O)(O)OP(=O)(O)O)O2)c(=O)n1 [dCTP] | mutations did not show a significant difference in the ability of PolIV to incorporate dCTP | – | – | –
MsDpo4 (Mycolicibacterium smegmatis MC2 155) (protein) MTKWVLHVDLDQFLASVELRRRPDLRGQPVIVGGSGDPSEPRKVVTCASYEAREFGVHAGMPLRAAARRCPDATFLPSDPAAYDEASEQVMGLLRDLGHPLEVWGWDEAYLGADLPDESDPVEVAERIRTVVAAETGLSCSVGISDNKQRAKVATGFAKPAGIYVLTEANWMTVMGDRPPDALWGVGPKTTKKLAAMGITTVADLAVTDPSVLTTAFGPSTGLWLLLLAKGGGDTEVSSEPWVPRSRSHVVTFPQDLTERREMDSAVRDLALQTLAEIVEQGRIVTRVAVTVRTSTFYTRTKIRKLPAPSTDAGQIVDTALAVLDQFELDRPVRLLGVRLELAMDDVPRPAVTAGT | – | 55.3 ± 4.0 | 0.011 ± 0.00117 | 167 ± 16.7
MsDpo4 (Mycolicibacterium smegmatis MC2 155; L14Y) (protein) MTKWVLHVDLDQFYASVELRRRPDLRGQPVIVGGSGDPSEPRKVVTCASYEAREFGVHAGMPLRAAARRCPDATFLPSDPAAYDEASEQVMGLLRDLGHPLEVWGWDEAYLGADLPDESDPVEVAERIRTVVAAETGLSCSVGISDNKQRAKVATGFAKPAGIYVLTEANWMTVMGDRPPDALWGVGPKTTKKLAAMGITTVADLAVTDPSVLTTAFGPSTGLWLLLLAKGGGDTEVSSEPWVPRSRSHVVTFPQDLTERREMDSAVRDLALQTLAEIVEQGRIVTRVAVTVRTSTFYTRTKIRKLPAPSTDAGQIVDTALAVLDQFELDRPVRLLGVRLELAMDDVPRPAVTAGT | – | 59.54 ± 13.4 | 0.00167 ± 0.000167 | 26.7 ± 5
